Values of other authors, collected in US8541373B2, “BChE albumin fusions for the treatment of cocaine abuse” (priority 2009, dated 2013).
Numbering of substitutions follows the chain as printed. Names and notes keep the numbering of the source.

B1: A328W/Y332A (protein, UniProt P06276 29-602, looked up, variant A328W Y332A)
Cholinesterase: EDDIIIATKNGKVRGMNLTVFGGTVTAFLGIPYAQPPLGRLRFKKPQSLTKWSDIWNATKYANSCCQNIDQSFPGFHGSEMWNPNTDLSEDCLYLNVWIPAPKPKNATVLIWIYGGGFQTGTSSLHVYDGKFLARVERVIVVSMNYRVGALGFLALPGNPEAPGNMGLFDQQLALQWVQKNIAAFGGNPKSVTLFGESAGAASVSLHLLSPGSHSLFTRAILQSGSFNAPWAVTSLYEARNRTLNLAKLTGCSRENETEIIKCLRNKDPQEILLNEAFVVPYGTPLSVNFGPTVDGDFLTDMPDILLELGQFKKTQILVGVNKDEGTWFLVAGAPGFSKDNNSIITRKEFQEGLKIFFPGVSEFGKESILFHYTDWVDDQRPENYREALGDVVGDYNFICPALEFTKKFSEWGNNAFFYYFEHRSSKLPWPEWMGVMHGYEIEFVFGLPLERRDNYTKAEEILSRSIVKRWANFAKYGNPNETQNNSTSWPVFKSTEQKYLTLNTESTRIMTKLRAQQCRFWTSFFPKVLEMTGNIDEAEWEWKAGFHRWNNYMMDWKNQFNDYTSKKESCVGL
B2: A227S/S315G/A356W/Y360G (protein, UniProt P06276 29-602, looked up, variant A227S S315G A356W Y360G)
Cholinesterase: B1 Cholinesterase with A199S, S287G, A332G

Settings: cited from earlier work

| Molecule | kcat relative to wild-type BChE (cocaine hydrolase activity) [fold] | Catalytic efficiency relative to wild-type BChE (hydrolysis of cocaine) [fold] |
| --- | --- | --- |
| B1 | 40 |  |
| B2 |  | 500 |
